This note sets out measurements from patent US20190048038A1, “METHOD FOR GENERATING CELL-PENETRATING STAPLED PEPTIDES THAT LACK NONSPECIFIC MEMBRANE-LYTIC PROPERTIES FOR THERAPEUTIC TARGETING” (Dana-Farber Cancer Institute, Inc., priority 2016, published 2019).

Positions of bridges follow the written chain, without caps; N, C: chain ends. Non-standard residues stand in square brackets, D forms with d. Residues, ends and D or L forms follow the SMILES beside them. No end group written: not given here. *: point of attachment. FITC = O=C1OC2(c3ccc(O)cc3Oc3cc(O)ccc32)c2ccc(NC(=S)*)cc21; R8 = C=CCCCCCC[C@@](C)(N)C(=O)O; Cba = N[C@@H](CC1CCC1)C(=O)O; S5 = C=CCCC[C@](C)(N)C(=O)O; βAla = NCCC(=O)O

The test system of data set [1] is mouse embryonic fibroblasts (MEFs). The data set can be described thus: ImageXpress microscopy cellular uptake of FITC-peptides (TIFI). The data set is classed as cell-based. As to conditions: MEFs 2×10^4 cells/well, 500 nM FITC-peptide, 4 h, 0% FBS, per cell basis. The text has this: The cellular penetrance of a peptide of interest can be assessed by any method known in the art. For example, ImageXpress microscopy analysis may be employed as described in Example 1. The total internalized FITC intensity (TIFI) can be used as a way to determine cellular uptake of a hydrocarbon-stapled and/or stitched peptide by a cell (e.g., any cell described herein). Methods of determining TIFI are described in detail in Examples 2 and 3 of the instant specification. Briefly, a custom module (CM) was created to develop a rigorous quantitation platform for measuring cellular uptake of hydrocarbon-stapled and/or stitched peptides derivatized with a FITC fluorophore at the N-terminus. The CM was developed based on (1) defining the parameters of cellular uptake (e.g., excluding extracellular aggregates and auto-fluorescent debris), (2) defining a pixel boundary to avoid quantitation of extracellular, membrane-adherent peptides, (3) excluding out-of-focus fluorescence from the FITC signal outliers. Once the CM parameters are set, images can be acquired at 20× and 40× magnification for per cell basis fluorescence, and four distinct central locations of the cellular field are visualized. Next signal-to-noise ratios are maximized to ensure optimal sensitivity and specificity of internal FITC-peptide signal. […]

For data set [2], the system named is BCL-XL-reconstituted p185^+Arf^−/−Mcl-1^del B-ALL cells. The experiment in a line: LDH release assay (membrane lysis) in B-ALL cells. As to conditions: 10 μM peptide, 30 min, serum-free. In general terms: Release of lactate dehydrogenase indicates damage to the cell membrane.
Procedure: Data are normalized based on the response to treatment with 1% Triton X-100 (100% release) and media alone (0% LDH release). Error bars are mean±s.d. for experiments performed in technical duplicate and repeated twice.
B-ALL and Jurkat T cells were plated in 96-well format (2×10^4 cells per well) in serum-free RPMI. […] The plate was centrifuged at 1500 rpm for 5 min at 4° C., and 80 μL of cell culture media was transferred to a clear plate (Corning), incubated with 80 μL of LDH reagent (Roche) for 15 min while shaking, and absorbance measured at 490 nm on a microplate reader (SpectraMax M5 Microplate Reader, Molecular Devices).
In order to identify compounds whose cytotoxicity correlates with the capacity for cellular uptake and intracellular target engagement, it is important to rule out nonspecific cytotoxicity due to potential plasma membrane lysis.
In data set [3] the target is T1, BCL-XLΔC (Homo sapiens, UniProt Q07817). The data set can be described thus: IC50 (nM). More on the design: BCL-XL ΔC was expressed as a glutathione-S-transferase (GST) fusion protein; GST (N, cleaved yes); made in house; host or cells: Escherichia coli BL21 (DE3), pGEX2T vector. The text has this: Table printed on a drawing sheet, FIG. 4B
Head of the field: IC50 (nM)
First copying reader's note: The table is the legend of a binding plot (mP vs [BCL-XL ΔC], M); plot marker symbols before each sequence are left out, and some mutated residues are printed inside a box.

In data set [4] the target is T1, BCL-XLΔC. The experiment in a line: fluorescence polarization. (In general: In fluorescence polarisation assays a small probe gives low polarisation when free and higher when bound to something large.)
Target sequence in this assay (Q07817 1-212, stated change not applied): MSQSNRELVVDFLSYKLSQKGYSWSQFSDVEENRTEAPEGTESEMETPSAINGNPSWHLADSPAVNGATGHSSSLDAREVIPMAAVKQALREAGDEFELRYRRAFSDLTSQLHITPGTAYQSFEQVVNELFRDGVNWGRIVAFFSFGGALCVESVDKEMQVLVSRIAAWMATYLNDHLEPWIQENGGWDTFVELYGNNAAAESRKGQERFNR
A short description of data set [5]: Percent α-helicity by circular dichroism. The format is physicochemical. As to conditions: 222 nm. How it is done:
FIG. 19 is a table showing the sequence composition and biophysical parameters of a BIM BH3 staple scanning library. Hydrophobicity was calculated using techniques generally known in the art^39, with “X” assigned the hydrophobicity value of Leu. Retention time in minutes reflects the peptide elution time from an HPLC C18 column (Agilent, 1200) run for 20 minutes using a 5-95% water: acetonitrile gradient (10 mM ammonium carbonate). Percent α-helicity of stapled peptides (50 μM, 10% acetonitrile in water) was derived from circular dichroism spectra using the mdeg value at 222 nm, as described^34. Net charge was calculated by summing the positive and negative charges of Arg and Asp/Glu, respectively. The isoelectric point (pI) calculation employed the EMBOSS values for pKa.
The alpha-helicity of a peptide of interest can be determined by any method known in the art. In some cases, circular dichroism or nuclear magnetic resonance spectroscopy (NMR) may be employed. Peptides are dissolved in an aqueous solution (e.g., 5 mM potassium phosphate solution at pH 7, or distilled H2O, to concentrations of 25-50 μM). […] The α-helical content of each peptide is calculated by dividing the mean residue ellipticity by the reported value for a model helical decapeptide (Yang et al., Methods Enzymol. 130:208 (1986)). […]
(In general: Circular dichroism is the unequal absorption of left and right circularly polarised light.)

In a further data set the test system is SAOS-2 cells. The data set can be described thus: Epifluorescence (IXM) microscopy cellular penetrance of ATSP-7041. The data set is classed as cell-based. The text has this:
Error bars represent mean±s.d.
Images were acquired by IXM.

A further data set concerns cells. As to conditions: 20 μM peptide.

In the case of `CC[C@H](C)[C@H](NC(=O)CCNC(=S)Nc1ccc2c(c1)C(=O)OC21c2ccc(O)cc2Oc2cc(O)ccc21)C(=O)N[C@@H](Cc1c[nH]c2ccccc12)C(=O)N[C@H](C(=O)N[C@@H](C)C(=O)N[C@@H](CCC(N)=O)C(=O)N[C@@H](CCC(=O)O)C(=O)N[C@@H](CC(C)C)C(=O)N[C@@H](CCCNC(=N)N)C(=O)N[C@@]1(C)CCCC=CCCC[C@@](C)(C(=O)N[C@@H](Cc2ccccc2)C(=O)N[C@@H](CC(N)=O)C(=O)N[C@@H](CCC(=O)O)C(=O)N[C@@H](Cc2ccc(O)cc2)C(=O)N[C@@H](Cc2ccc(O)cc2)C(=O)N[C@@H](C)C(=O)N[C@@H](CCCNC(=N)N)C(=O)N[C@@H](CCCNC(=N)N)C(N)=O)NC(=O)[C@H](CC(=O)O)NC(=O)CNC(=O)[C@H]([C@@H](C)CC)NC1=O)[C@@H](C)CC` [A161E, IWIAQELRXIGDXFNEYYARR], the “total internalized FITC intensity (TIFI), cellular uptake” value in data set [1] is “retention of high level TIFI”. Take `CC[C@H](C)[C@H](NC(=O)CCNC(=S)Nc1ccc2c(c1)C(=O)OC21c2ccc(O)cc2Oc2cc(O)ccc21)C(=O)N[C@@H](Cc1c[nH]c2ccccc12)C(=O)N[C@H](C(=O)N[C@@H](C)C(=O)N[C@@H](CCC(N)=O)C(=O)N[C@@H](CCC(=O)O)C(=O)N[C@@H](CC(C)C)C(=O)N[C@@H](CCCNC(=N)N)C(=O)N[C@@]1(C)CCCC=CCCC[C@@](C)(C(=O)N[C@@H](Cc2ccccc2)C(=O)N[C@@H](CC(N)=O)C(=O)N[C@@H](C)C(=O)N[C@@H](Cc2ccc(O)cc2)C(=O)N[C@@H](Cc2ccc(O)cc2)C(=O)N[C@H](C(=O)N[C@@H](CCCNC(=N)N)C(=O)N[C@@H](CCCNC(=N)N)C(N)=O)[C@@H](C)O)NC(=O)[C@H](CC(=O)O)NC(=O)CNC(=O)[C@H]([C@@H](C)CC)NC1=O)[C@@H](C)CC` [A164T, IWIAQELRXIGDXFNAYYTRR]: the “LDH release, membrane lytic activity” value in data set [2] is listed as “promote lysis”. As for `CC[C@H](C)[C@H](NC(=O)CCNC(=S)Nc1ccc2c(c1)C(=O)OC21c2ccc(O)cc2Oc2cc(O)ccc21)C(=O)N[C@@H](Cc1c[nH]c2ccccc12)C(=O)N[C@H](C(=O)N[C@@H](C)C(=O)N[C@@H](CCC(N)=O)C(=O)N[C@@H](CCC(=O)O)C(=O)N[C@@H](CC(C)C)C(=O)N[C@@H](CCCNC(=N)N)C(=O)N[C@@]1(C)CCCC=CCCC[C@@](C)(C(=O)N[C@@H](Cc2ccccc2)C(=O)N[C@@H](CC(N)=O)C(=O)N[C@@H](C)C(=O)N[C@@H](Cc2ccc(O)cc2)C(=O)N[C@@H](Cc2ccc(O)cc2)C(=O)N[C@@H](C)C(=O)N[C@@H](CCCNC(=N)N)C(=O)N[C@@H](CCCNC(=N)N)C(N)=O)NC(=O)[C@H](CC(C)C)NC(=O)CNC(=O)[C@H]([C@@H](C)CC)NC1=O)[C@@H](C)CC` [IWIAQELRXIGLXFNAYYARR] ({FITC-βAla}-IWIAQELR[S5]IGL[S5]FNAYYARR-NH2; staple 9-13), on BCL-XLΔC [3], the IC50 – broadly, the concentration that inhibits the measured activity by half – was above 1 µM. Regarding `CC[C@H](C)[C@H](NC(=O)CCNC(=S)Nc1ccc2c(c1)C(=O)OC21c2ccc(O)cc2Oc2cc(O)ccc21)C(=O)N[C@@H](CCCNC(=N)N)C(=O)N[C@H](C(=O)N[C@@H](C)C(=O)N[C@@H](CCC(N)=O)C(=O)N[C@@H](CCC(=O)O)C(=O)N[C@@H](CC(C)C)C(=O)N[C@@H](CCCNC(=N)N)C(=O)N[C@@]1(C)CCCC=CCCC[C@@](C)(C(=O)N[C@@H](Cc2ccccc2)C(=O)N[C@@H](CC(N)=O)C(=O)N[C@@H](C)C(=O)N[C@@H](Cc2ccc(O)cc2)C(=O)N[C@@H](Cc2ccc(O)cc2)C(=O)N[C@@H](C)C(=O)N[C@@H](CCCNC(=N)N)C(=O)N[C@@H](CCCNC(=N)N)C(N)=O)NC(=O)[C@H](CC(=O)O)NC(=O)CNC(=O)[C@H]([C@@H](C)CC)NC1=O)[C@@H](C)CC` [W147R, IRIAQELRXIGDXFNAYYARR], the “LDH release, membrane lytic activity” value in data set [2] is reported as “promote lysis”.

Turning to BIM SAHBA1, in the data set with BCL-XLΔC [4], the IC50 was found to be 0.0138 µM. Still for that read-out and setting: under IWIALELRXIGDXFNAYYARR stands above 1 µM; under IWIAQELRXIGDXFNAIYARR, 0.0594 µM. The same measure, in the same setting: to IWIAQELRXIGDXFNAYYIRR belongs 0.0457 µM. Same read-out and setting: to IWIAQLLRXIGDXFNAYYARR belongs above 1 µM. Regarding “LTFZEYWANCbXSAA (LTF[R8]EYWAN[Cba][S5]SAA; staple 4-11) [ATSP-7041]”, in data set [5], the α-helicity came to 70%. Further, the “cellular penetrance (TIFI value)” value with SAOS-2 cells is given as “effective cellular penetrance”. The “nonspecific membrane lytic properties (LDH release)” value in the data set with cells is listed as “lacks nonspecific membrane lytic properties”.
